This is an account of results in US20140271457A1 (AbbVie / Abbott, published 2014).

Experiment [1] addresses Recombinant Human IL-13 (human, UniProt P35225 35-146, limits assumed). As to the kind of experiment: cell-based or functional assay.
Experiment [2] has as its target T1, Recombinant Human TNF-α/TNFSF1A (human, UniProt P01375 77-233).
T1 construct: also called huTNFα
As to the kind of experiment: SPR (Biacore). For orientation: In SPR one partner is held on a chip, and binding of the other changes the refractive index at the surface.

Sequence of Recombinant Human IL-13 (P35225 35-146 limits assumed): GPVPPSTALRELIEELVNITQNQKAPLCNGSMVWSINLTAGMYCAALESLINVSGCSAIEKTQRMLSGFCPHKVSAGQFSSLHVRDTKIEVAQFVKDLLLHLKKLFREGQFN
T1 sequence (P01375 77-233 limits assumed): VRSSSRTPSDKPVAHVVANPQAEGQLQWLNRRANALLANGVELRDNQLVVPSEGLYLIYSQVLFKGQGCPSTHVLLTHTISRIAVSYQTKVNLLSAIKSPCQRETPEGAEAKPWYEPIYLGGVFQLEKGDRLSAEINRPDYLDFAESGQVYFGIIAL

B1: DVD3169 (bispecific antibody, human IgG1, kappa)
heavy: not shown
light: DIQMTQSPSSLSASVGDRVTITCRASQGIRNYLNWYQQKPGKAPKLLIYYASNLEVGVPSRFSGSGSGTDYTLTISSLQPEDFATYYCQQDNRFPYTFGGGTKVEIKRTVAAPDIQMTQSPSSLSASVGDRVTITCRASQDISQYLNWYQQKPGKAPKLLIYYTSRLQSGVPSRFSGSGSGTDFTLTISSLQPEDFATYFCQQGNTWPPTFGQGTKLEIKRTVAAPSVFIFPPSDEQLKSGTASVVCLLNNFYPREAKVQWKVDNALQSGNSQESVTEQDSKDSTYSLSSTLTLSKADYEKHKVYACEVTHQGLSSPVTKSFNRGEC
notes: DVD-Ig: outer AB399 (IL-13), inner AB441 (TNF); linkers HG-short/LK-short; also called DVD3169H; DVD3169L
B1: the “IL-13 Neutralization Assay IC50” value in experiment [1] turned out to be 0.089 nM. In experiment [2], the binding result is reported as “binds”.
